# Test results reported in patent US8080531B2, “Methods for modulating checkpoint activation through TopBP1” (California Institute of Technology, priority 2006, dated 2011).
# Legend:
# Xchk1 [1] = test: Checkpoint-dependent phosphorylation of Xchk1 in XtopBP1-depleted egg extracts with aphidicolin and sperm nuclei; type: biochemical, Xenopus; conditions: added back to XtopBP1-depleted extract, aphidicolin
# From the text: Applicants proceeded to remove endogenous XtopBP1 from egg extracts by immunodepletion with anti-XtopBP1 antibodies (FIG. 7C). In parallel, Applicants used control antibodies to prepare mock-depleted extract. Next, Applicants added back wild-type His6-XtopBP1 or the His6-XtopBP1-W1138R mutant to aliquots of the XtopBP1-depleted extract. Finally, Applicants added aphidicolin and demembranated Xenopus sperm nuclei to the various extracts in order to create stalled replication forks and then examined phosphorylation of Xchk1 (FIG. 7D).
# (§1) Extracts from Xenopus eggs were prepared as described (Kumagai and Dunphy, 2000). A DNA replication checkpoint response was induced by addition of 50 μg/ml aphidicolin into extracts containing demembranated sperm nuclei (3000 per μl) (Kumagai and Dunphy, 2000). To monitor DNA replication, extracts containing 1000 sperm nuclei/μl were incubated with [α-^32P]dATP (Yoo et al., 2004).
# Xatr and Xatrip were immunodepleted as described (Kumagai et al., 2004). For immunodepletion of XtopBP1, we incubated 100 μl egg extract twice for 60 min with 10 μl Affiprep protein A beads (BioRad) containing 35 μg anti-XtopBP1 antibodies.
# Xatr-Xatrip [2] = test: Kinase assay of Xatr-Xatrip complexes isolated from Xenopus egg extracts; type: biochemical; conditions: for activation of Xatr kinase activity toward PHAS-I: isolated Xatr-Xatrip complexes, 32P-ATP, result in words
# From the text: Specifically, Applicants first isolated Xatr from egg extracts by pull-downs with FLAG-tagged Xenopus ATRIP (Xatrip). For these experiments, Applicants used both full-length Xatrip and an N-terminal truncation mutant (ΔN222) that supports normal Xatr-dependent activation of Xchk1 in egg extracts (Kumagai et al., 2004; Kim et al., 2005).
# Applicants eluted the beads with FLAG peptide and mixed the eluates with a His6-tagged version of XtopBP1 that had been purified from baculovirus-infected insect cells (FIG. 1B). Finally, Applicants added ^32P-ATP and PHAS-I, a commonly used model substrate for ATR (Abraham, 2001).
# Xatrip-FLAG and XatripΔN222-FLAG (20 ng/μl each) were incubated in interphase extracts containing anti-FLAG M2 antibody beads (Sigma) for 60 min at room temperature. The beads were isolated and washed twice with buffer A (10 mM HEPES-KOH (pH 7.5), 150 mM NaCl, 0.1% CHAPS, and 2.5 mM EGTA) and twice with HEPES-buffered saline (HBS; 10 mM HEPES-KOH (pH 7.5) and 150 mM NaCl). Xatr-Xatrip complexes were eluted in one-tenth the volume of the egg extract in HBS containing 0.1 mg/ml 3×-FLAG peptide (Sigma) for 60 min at 4° C. Eluates (2 μl) were used for kinase assays as described below.
# (§2) Samples were incubated in 20 μl kinase buffer (50 mM Tris-HCl (pH 7.5), 10 mM MgCl2, 1 mM dithiothreitol, 100 μM nonradioactive ATP, and 100 μCi/ml [γ-^32P]ATP) containing 12.5 μg/ml PHAS-I or 50 μg/ml GST-Xmcm2 (62-122) for 30 min at room temperature. GST-XtopBP1 (972-1279) was added at a final concentration of 100 μg/ml unless indicated otherwise. In some cases, GST-Xmcm2 (62-122), GST-Xchk1 (306-352), or full-length Xchk1-Myc-His6 were used as substrates with only […] nonradioactive ATP. Reactions were terminated by boiling in gel sample buffer.
# [3] = system: chromosomal DNA replication; test: Chromosomal DNA replication in XtopBP1-depleted egg extracts; type: biochemical, Xenopus; conditions: XtopBP1-depleted extracts with protein added back
# Description: In conjunction with these experiments, Applicants also examined chromosomal DNA replication in extracts containing either wild-type or W1138R His6-XtopBP1. […] Therefore, the defect in phosphorylation of Xchk1 in the extracts containing this mutant is not due to a failure in the assembly of DNA replication forks.
# as §1
# human ATR [4] = test: Kinase assay of recombinant human FLAG-ATR against S92 of GST-Xmcm2 (62-122); type: biochemical
# Description: (§3) Specifically, Applicants isolated wild-type and kinase-deficient versions of FLAG-tagged human ATR from nuclear extracts of U2OS cells that conditionally express these proteins (FIG. 5C). The recombinant ATR proteins were purified with anti-FLAG magnetic beads under conditions that preserve the binding of endogenous ATRIP (Ünsal-Kacmaz and Sancar, 2004). Next, Applicants incubated both the wild-type and kinase-deficient FLAG-ATR preparations in the absence or presence of GST-XtopBP1 (972-1279), and measured kinase activity against S92 of the GST-Xmcm2 (62-122) peptide.
# as §2
# (§4) U2OS cells conditionally expressing wild-type (GW33) or kinase-deficient (GK41) human FLAG-ATR were cultured as described (Nghiem et al., 2001). Cells were induced with 1 μg/ml doxycycline for 48 hr. Nuclear extracts were prepared as described (Dignam et al., 1983) except that nuclei were lysed by brief sonication and the concentration of NaCl in the nuclear isolation buffer was reduced to 350 mM in order to preserve the binding of endogenous ATRIP to recombinant ATR. FLAG-ATR proteins were isolated by an overnight incubation with anti-FLAG antibodies bound to protein G-magnetic beads (Dynal) and eluted with 3×-FLAG peptide.
# human ATR [5] = molecular target: T1, human ATR (Homo sapiens, UniProt Q13535); test: as above; type: biochemical; conditions: wild-type human FLAG-ATR from U2OS nuclear extracts
# T1 construct: expressed in transfected cells; host or cells: U2OS GW33 cells (doxycycline-inducible), nuclear extract, anti-FLAG purification
# Description: as §3, §2, §4
# Xatr-Xatrip [6] = molecular target: Xatr-Xatrip (Xenopus laevis, UniProt Q9DE14); test: Glutathione bead pull-down of Xatr and Xatrip from egg extracts; type: binding; design: incubated glutathione beads containing GST-XtopBP1 (972-1279) in egg extracts, reisolated the beads, and performed immunoblotting for both Xatr and Xatrip; Applicants removed endogenous Xatrip from egg extracts by immunodepletion with anti-Xatrip antibodies; from tissue; host or cells: Xenopus egg extract; conditions: Xatrip-depleted extracts
# Description: (§5) Specifically, Applicants incubated glutathione beads containing GST-XtopBP1 (972-1279) in egg extracts, reisolated the beads, and performed immunoblotting for both Xatr and Xatrip. […] In addition, in other experiments, there was no binding of Xatr or Xatrip to beads containing GST fusions of the 1-348, 333-646, or 623-984 segments from XtopBP1 (data not shown).
# (§6) Applicants also tested to see if the association of XtopBP1 with Xatr depends upon Xatrip. For this experiment, Applicants removed endogenous Xatrip from egg extracts by immunodepletion with anti-Xatrip antibodies. As described previously, this procedure leaves behind approximately 30% of the endogenous Xatr, the fraction that is not in a complex with Xatrip (Kumagai et al., 2004). Next, Applicants added GST-XtopBP1 (972-1279) to the Xatrip-depleted extracts and to mock-depleted extracts that had been prepared in parallel.
# Xatm = test: Kinase assay of immunoprecipitated Xatm toward PHAS-I; type: biochemical, Xenopus; conditions: Xatm immunoprecipitated from egg extracts
# Description: Applicants have also shown that TopBP1 is a specific activator of ATR and not a general activator of the PIKK family. Specifically, Applicants immunoprecipitated both Xatr and Xatm in parallel from Xenopus egg extracts and then incubated the immunoprecipitates with GST-XtopBP1 (972-1279) (FIG. 3F).
# as §2
# Xchk1 [7] = test: Ectopic phosphorylation of 35S-Xchk1 in Xenopus egg extracts without checkpoint-inducing DNA; type: biochemical; conditions: 35S-Xchk1, tautomycin, no checkpoint-inducing DNA template
# Description: Because the GST-XtopBP1 (972-1279) fragment could activate Xatr in vitro without the inclusion of DNA, Applicants reasoned that ectopic addition of this fragment to Xenopus egg extracts might also be able to trigger the Xatr-dependent phosphorylation of Xchk1 even in the absence of a checkpoint-inducing DNA template.
# as §1
# Xatr-Xatrip [8] = test: Glutathione bead pull-down of Xatr and Xatrip from egg extracts; type: binding, Xenopus
# Description: as §5, §6
# Chain of Xatr-Xatrip (Q9DE14 whole entry, the tested form may be a part): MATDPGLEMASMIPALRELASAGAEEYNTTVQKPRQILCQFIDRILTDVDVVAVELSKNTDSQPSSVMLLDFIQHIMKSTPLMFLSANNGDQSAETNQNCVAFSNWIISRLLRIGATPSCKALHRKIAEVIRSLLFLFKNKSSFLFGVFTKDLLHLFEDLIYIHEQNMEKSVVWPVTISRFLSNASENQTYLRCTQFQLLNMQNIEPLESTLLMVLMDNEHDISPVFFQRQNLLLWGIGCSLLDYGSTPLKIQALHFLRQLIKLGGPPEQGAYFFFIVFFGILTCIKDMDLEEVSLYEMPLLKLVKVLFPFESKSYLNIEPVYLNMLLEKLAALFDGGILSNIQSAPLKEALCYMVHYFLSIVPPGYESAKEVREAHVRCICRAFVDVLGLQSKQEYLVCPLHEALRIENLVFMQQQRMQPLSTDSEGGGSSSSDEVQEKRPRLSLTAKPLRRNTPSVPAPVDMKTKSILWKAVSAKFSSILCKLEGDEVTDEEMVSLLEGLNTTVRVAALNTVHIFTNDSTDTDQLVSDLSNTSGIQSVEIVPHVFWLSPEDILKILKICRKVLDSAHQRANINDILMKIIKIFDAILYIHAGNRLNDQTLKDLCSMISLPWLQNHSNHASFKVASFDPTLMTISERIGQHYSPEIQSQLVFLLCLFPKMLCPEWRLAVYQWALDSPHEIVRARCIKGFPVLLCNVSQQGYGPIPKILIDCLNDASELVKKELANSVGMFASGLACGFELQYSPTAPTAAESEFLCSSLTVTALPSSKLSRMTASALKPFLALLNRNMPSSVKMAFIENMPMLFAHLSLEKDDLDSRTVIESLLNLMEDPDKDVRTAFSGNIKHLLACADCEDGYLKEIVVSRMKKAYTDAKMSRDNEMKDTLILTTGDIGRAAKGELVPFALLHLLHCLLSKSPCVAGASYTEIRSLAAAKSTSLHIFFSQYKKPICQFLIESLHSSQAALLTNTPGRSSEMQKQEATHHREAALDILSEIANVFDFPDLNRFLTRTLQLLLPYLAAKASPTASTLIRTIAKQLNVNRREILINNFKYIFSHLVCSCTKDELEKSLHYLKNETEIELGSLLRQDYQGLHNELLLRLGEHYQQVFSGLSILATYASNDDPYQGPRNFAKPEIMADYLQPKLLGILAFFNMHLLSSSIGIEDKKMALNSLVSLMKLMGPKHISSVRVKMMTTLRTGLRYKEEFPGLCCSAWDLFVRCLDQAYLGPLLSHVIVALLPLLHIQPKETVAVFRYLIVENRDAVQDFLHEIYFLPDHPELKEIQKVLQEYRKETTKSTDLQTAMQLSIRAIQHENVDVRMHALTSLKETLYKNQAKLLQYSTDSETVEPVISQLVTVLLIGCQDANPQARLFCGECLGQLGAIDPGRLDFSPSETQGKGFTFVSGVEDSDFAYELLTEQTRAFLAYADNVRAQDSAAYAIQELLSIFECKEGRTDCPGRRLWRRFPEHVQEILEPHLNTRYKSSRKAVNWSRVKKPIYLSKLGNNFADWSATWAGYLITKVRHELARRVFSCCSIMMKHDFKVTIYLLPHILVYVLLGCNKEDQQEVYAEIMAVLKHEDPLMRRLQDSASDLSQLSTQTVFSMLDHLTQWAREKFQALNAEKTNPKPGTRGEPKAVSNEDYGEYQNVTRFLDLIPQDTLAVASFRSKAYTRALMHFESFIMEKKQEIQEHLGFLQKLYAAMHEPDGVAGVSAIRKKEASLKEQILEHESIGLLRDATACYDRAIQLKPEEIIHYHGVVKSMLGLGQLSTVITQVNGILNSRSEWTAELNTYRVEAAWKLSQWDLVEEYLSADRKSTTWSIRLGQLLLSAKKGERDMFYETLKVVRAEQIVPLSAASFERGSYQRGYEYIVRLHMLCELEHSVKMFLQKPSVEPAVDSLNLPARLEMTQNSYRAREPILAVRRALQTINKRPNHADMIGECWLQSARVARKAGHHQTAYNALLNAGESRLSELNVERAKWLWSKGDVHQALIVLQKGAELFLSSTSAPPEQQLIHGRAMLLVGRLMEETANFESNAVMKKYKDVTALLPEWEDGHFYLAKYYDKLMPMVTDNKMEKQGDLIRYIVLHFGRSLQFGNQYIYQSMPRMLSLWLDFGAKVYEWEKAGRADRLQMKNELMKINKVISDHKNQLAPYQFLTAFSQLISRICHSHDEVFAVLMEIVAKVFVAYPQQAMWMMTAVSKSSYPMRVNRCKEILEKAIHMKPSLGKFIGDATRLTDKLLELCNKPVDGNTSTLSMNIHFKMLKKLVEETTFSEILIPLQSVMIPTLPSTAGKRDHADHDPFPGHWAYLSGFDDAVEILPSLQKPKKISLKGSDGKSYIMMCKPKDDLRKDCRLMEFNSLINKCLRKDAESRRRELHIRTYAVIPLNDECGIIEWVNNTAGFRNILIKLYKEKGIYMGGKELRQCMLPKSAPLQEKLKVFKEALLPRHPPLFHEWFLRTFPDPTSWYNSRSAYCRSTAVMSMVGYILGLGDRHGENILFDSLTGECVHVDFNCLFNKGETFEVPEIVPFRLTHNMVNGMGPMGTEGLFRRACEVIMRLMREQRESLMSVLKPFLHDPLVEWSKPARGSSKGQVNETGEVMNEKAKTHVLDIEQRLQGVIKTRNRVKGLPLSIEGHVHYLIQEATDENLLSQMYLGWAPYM
# Chain of Xatr-Xatrip (Xenopus laevis, UniProt Q9DE14) (Q9DE14 whole entry, the tested form may be a part): as above
binding of Xatr to the XtopBP1 fragment (Xatr-Xatrip [6]),activation of Xatm (Xatm),binding of Xatr to the XtopBP1 fragment (Xatr-Xatrip [8]; Xatrip-depleted extracts plus recombinant XatripΔN222-FLAG),"binding of Xatr and Xatrip to glutathione beads (Xatr-Xatrip [8]; egg extracts, immunoblotting)",binding of Xatr to the XtopBP1 fragment (Xatr-Xatrip [8]; mock-depleted extracts),"activation of immunoprecipitated Xatr (Xatr-Xatrip [2]; Xatr immunoprecipitated from egg extracts, PHAS-I)",phosphorylation of GST-Xchk1 (306-352) peptide and full-length Xchk1-Myc-His6 on S344 (Xatr-Xatrip [2]; substrates GST-Xchk1 (306-352) and Xchk1-Myc-His6),Molecule,rescue of phosphorylation of Xchk1 (Xchk1 [1]),activation of Xatr kinase activity toward PHAS-I (Xatr-Xatrip [2]),chromosomal DNA replication [3],kinase activity in mock preparation of magnetic beads (human ATR [4]; beads lacking anti-FLAG antibodies),activity of kinase-deficient FLAG-ATR (human ATR [4]; kinase-deficient human FLAG-ATR),kinase activity of wild-type FLAG-ATR (human ATR [5]),phosphorylation of Xchk1 in egg extracts (Xchk1 [7]),"Xatr-dependent phosphorylation of GST-Xmcm2 (62-122) peptide (Xatr-Xatrip [2]; substrate GST-Xmcm2 (62-122), S92)"
,,,,,,,His6-XtopBP1-W1138R: version of full-length His6-XtopBP1 with the W1138R mutation,could not restore the phosphorylation of Xchk1,unable to activate Xatr,not inhibited,,,,,
no binding,no activation of Xatm,restore the binding,could clearly detect binding,good binding,strong activation,readily induced phosphorylation,"GST-XtopBP1 (972-1279): GST fusion protein containing conserved region between BRCT domains VI and VII (residues 972-1279) of XtopBP1 (protein, left off: a dimerising Fc or GST, GST fusion protein containing conserved region between BRCT domains VI and VII (residues 972-1279) of XtopBP1) EQQKRVPEALYPHTYNPKMSLDISAVQDGSYTASKFSADTSLQQDENSELQLQQNNKFGETSDDQVKKAAGDGNPQNPSKDVKGALTQTLEMRENFQRQLQEFMSATSVVKPRGSVGRAGFDNSPCTPEGARSTRNGRSRVLEALRQSRQAMTDLNTEPSQNEQIIWDDPTAREERAKLVSNLQWPDSPSQYSEQLQHNMNDAGGNYTPAKESLTDSEIAELEACEFEPKSAMRTPVIENNLQSPTKPDHLTPTPQAPSIAFPLANPPVAPQPREKPVQPFSKEETLKERRFQLSSLDPQERIDYSQL",,induced activation of Xatr as effectively as full-length XtopBP1,,did not induce any kinase activity,neither the intact nor W1138R mutant form of GST-XtopBP1 (972-1279) had any effect,large increase,very robust phosphorylation,induced a strong Xatr-dependent phosphorylation
